Experimental data published in patent US20140178935A1 (AVEO PHARMACEUTICALS, published 2014).

T1: recombinant mhm chimeric HGF protein containing human W507-L585 HGF sequence disposed within mouse HGF … (mouse-human-mouse chimera, UniProt Q08048 56-728)
T1 construct: CHO supernatant; also called mhm chimera (W507-L585); MHM chimera (507-585)
T1 chain: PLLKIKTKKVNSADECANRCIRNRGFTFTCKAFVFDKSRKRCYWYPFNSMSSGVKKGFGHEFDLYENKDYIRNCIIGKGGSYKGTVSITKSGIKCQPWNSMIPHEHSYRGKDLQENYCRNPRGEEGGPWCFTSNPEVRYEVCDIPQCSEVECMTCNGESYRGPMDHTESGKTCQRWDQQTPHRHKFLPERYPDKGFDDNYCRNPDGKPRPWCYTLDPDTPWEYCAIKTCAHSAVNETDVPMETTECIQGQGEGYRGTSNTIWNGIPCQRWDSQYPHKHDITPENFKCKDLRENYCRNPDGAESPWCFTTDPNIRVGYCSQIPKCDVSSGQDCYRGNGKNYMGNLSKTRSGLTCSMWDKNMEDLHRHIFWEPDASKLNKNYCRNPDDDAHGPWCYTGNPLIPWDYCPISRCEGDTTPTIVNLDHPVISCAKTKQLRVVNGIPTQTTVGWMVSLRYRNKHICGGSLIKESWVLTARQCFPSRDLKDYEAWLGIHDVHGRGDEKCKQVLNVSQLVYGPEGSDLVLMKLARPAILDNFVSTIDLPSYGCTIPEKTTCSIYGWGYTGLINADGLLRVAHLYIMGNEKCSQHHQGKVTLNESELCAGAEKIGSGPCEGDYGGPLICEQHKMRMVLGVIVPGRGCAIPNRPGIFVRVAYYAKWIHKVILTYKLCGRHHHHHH


Key:
[1] = target: T2, recombinant human HGF (R&D Systems, Catalog No. 294-HGN-025) (human, UniProt P14210 32-728); test: competition ELISA (DELFIA): antibody inhibits c-Met binding to plate-coated HGF
T2 construct: Mature HGF is a disulfide-linked heterodimer of alpha and beta chain cut from one precursor; also called rhHGF (R&D Systems); rhHGF
T2 sequence (P14210 32-728 limits assumed): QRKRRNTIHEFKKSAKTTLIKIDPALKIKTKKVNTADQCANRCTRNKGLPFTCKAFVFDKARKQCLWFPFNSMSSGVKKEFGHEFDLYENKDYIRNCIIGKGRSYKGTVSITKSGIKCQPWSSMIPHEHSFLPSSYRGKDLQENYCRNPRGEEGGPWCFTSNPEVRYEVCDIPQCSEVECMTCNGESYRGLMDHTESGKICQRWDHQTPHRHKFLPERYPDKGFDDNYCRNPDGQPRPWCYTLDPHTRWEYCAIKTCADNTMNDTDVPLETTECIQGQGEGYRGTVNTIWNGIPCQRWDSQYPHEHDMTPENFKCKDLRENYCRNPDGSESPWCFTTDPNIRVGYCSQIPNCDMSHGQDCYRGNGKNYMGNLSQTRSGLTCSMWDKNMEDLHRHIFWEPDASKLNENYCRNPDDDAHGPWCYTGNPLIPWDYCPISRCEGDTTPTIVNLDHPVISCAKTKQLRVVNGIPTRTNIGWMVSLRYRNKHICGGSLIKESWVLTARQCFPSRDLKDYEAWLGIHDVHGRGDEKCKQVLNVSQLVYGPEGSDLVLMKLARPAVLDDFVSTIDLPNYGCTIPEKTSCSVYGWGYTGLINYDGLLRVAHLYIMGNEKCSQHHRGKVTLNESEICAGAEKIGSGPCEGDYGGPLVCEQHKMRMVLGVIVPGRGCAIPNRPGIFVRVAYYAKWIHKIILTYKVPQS
Description: The plates then were blocked with 200 μL of 5% non-fat dry milk in PBS for 1 hour at room temperature. […] 100 μL of sample per well was transferred to the assay plate and incubated overnight at 4° C.
The resulting plates then were washed three times with PBS-0.1% Tween 20, and incubated for 1 hour at room temperature with Eu-labeled Streptavidin (Wallac, Catalog No. 1244-360) diluted 1:1000 in DELFIA assay buffer (Wallac, Catalog No. 4002-0010). The resulting plates were washed 3 times with DELFIA wash solution (Wallac, Catalog No. 4010-0010) and incubated with 100 μL/well DELFIA enhancement solution (Wallac #4001-0010) for 15 minutes at room temperature with agitation.
The plates were read on Victor³V instrument (Perkin Elmer) using the Europium method.

[2] = target: T3, recombinant mouse HGF (R&D Systems) (mouse, UniProt Q08048 33-728); test: SPR, antibody immobilized, HGF protein injected, 25 C
T3 construct: Bought protein, construct not described; also called rmHGF (R&D Systems); murine HGF
T3 sequence (Q08048 33-728 limits assumed): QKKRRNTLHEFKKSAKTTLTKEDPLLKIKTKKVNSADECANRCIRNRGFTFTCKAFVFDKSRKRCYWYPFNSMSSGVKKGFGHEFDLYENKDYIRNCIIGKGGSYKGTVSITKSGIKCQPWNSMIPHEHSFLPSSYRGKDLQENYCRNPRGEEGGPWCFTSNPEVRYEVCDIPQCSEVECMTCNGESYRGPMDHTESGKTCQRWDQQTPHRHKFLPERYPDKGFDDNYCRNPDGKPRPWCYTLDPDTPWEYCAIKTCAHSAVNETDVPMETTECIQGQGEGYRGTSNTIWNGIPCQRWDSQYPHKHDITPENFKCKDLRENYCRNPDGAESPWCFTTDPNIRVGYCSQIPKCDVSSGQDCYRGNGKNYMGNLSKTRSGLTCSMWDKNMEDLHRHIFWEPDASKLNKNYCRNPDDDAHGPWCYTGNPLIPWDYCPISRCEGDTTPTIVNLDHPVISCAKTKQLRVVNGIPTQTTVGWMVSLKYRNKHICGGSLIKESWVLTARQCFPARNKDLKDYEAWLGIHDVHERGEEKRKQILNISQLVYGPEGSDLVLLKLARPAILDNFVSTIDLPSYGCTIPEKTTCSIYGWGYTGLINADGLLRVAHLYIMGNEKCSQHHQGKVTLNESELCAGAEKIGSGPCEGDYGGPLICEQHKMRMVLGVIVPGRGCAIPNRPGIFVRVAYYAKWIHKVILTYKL
Description: (§1) Analyses were performed at 25° C. using PBS (GIBCO, Catalog No. 14040-133) containing 0.05% surfactant P20 (BIAcore, Catalog No. R-1000-54), 2 mg/mL BSA (EMD, Catalog No. 2930) and 10 mg/mL CM-Dextran Sodium salt (Fluka, Catalog No. 86524) as running buffer. […] The resulting binding was determined as resonance units (RU) over baseline 30 seconds after the end of injection. […] Non-specific binding was monitored by comparing binding to a control surface.

[3] = target: T1, recombinant mhm chimeric HGF protein …; test: as above
Description: as §1

[4] = target: T2, recombinant human HGF (R&D Systems, …); test: cell-based or functional assay
[5] = target: T2, recombinant human HGF (R&D Systems, …); test: SPR, captured antibody, HGF injected, 25 C
Description: Mouse anti-human immunoglobulins (Jackson Labs, Catalog No. 209-005) or rabbit anti-mouse immunoglobulins (BIAcore, Catalog No. BR-1005-14) were immobilized on carboxymethylated dextran CM4 sensor chips (BIAcore, Catalog No. BR-1006-68) by amine coupling (BIAcore, Catalog No. BR-1000-50) using a standard coupling protocol according to manufacturer's instructions. […] The analyses were performed at 25° C. and 37° C. using PBS (GIBCO, Catalog No. 14040-133) containing 0.05% surfactant P20 (BIAcore, Catalog No. BR-1000-54), and 2 mg/mL BSA (EMD, Catalog No. 2930) as running buffer.
The antibodies were captured in an individual flow cell at a flow rate of […]. Injection time was variable for each antibody to yield approximately 20 RU of antibody captured for each cycle. […] The dissociation phase was monitored for 15 or 90 minutes, depending on concentration. The surface of mouse anti-human immunoglobulins sensor chips was then regenerated with 10 mM Glycine-HCl, pH 2.2 (BIAcore, Catalog No. BR-1003-54) injected for 3 minutes at a flow rate of 60 μL/min before another cycle was initiated. The surface of rabbit anti-mouse immunoglobulins sensor chips was regenerated with 10 mM Glycine-HCl, pH 1.7 (BIAcore, Catalog No. BR-1003-54) injected for 3 minutes at a flow rate of 60 μL/min before another cycle was initiated.
Kinetic parameters were determined using the kinetic function of the BIAevaluation software with reference subtraction.

Row | IC50 [1] | binding result [2] | binding result [3] | IC50, neutralization of HGF stimulated BrdU incorporation in 4 MBr-5 cells [4] | Kd [5] | koff [5] | kon [5] | Binder
1 | 5.57 nM | no binding | binds | 1.41 nM | 0.0135 nM | 2.1e-05 s⁻¹ | 1.6e+06 M⁻¹ s⁻¹ | anti-hHGF monoclonal antibody 2B8 (antibody, mouse IgG1, kappa, Murine IgG1 kappa from hybridoma; also called murine 2B8; mouse 2B8) heavy: QVQLQQPGAELVKPGTSVKLSCKASGYTFTTYWMHWVNQRPGQGLEWIGEINPTNGHTNYNEKFKSKATLTVDKSSSTAYMQLSSLTSEDSAVYYCARNYVGSIFDYWGQGTTLTVSSAKTTPPSVYPLAPGSAAQTNSMVTLGCLVKGYFPEPVTVTWNSGSLSSGVHTFPAVLQSDLYTLSSSVTVPSSTWPSETVTCNVAHPASSTKVDKKIVPRDCGCKPCICTVPEVSSVFIFPPKPKDVLTITLTPKVTCVVVDISKDDPEVQFSWFVDDVEVHTAQTQPREEQFNSTFRSVSELPIMHQDWLNGKEFKCRVNSAAFPAPIEKTISKTKGRPKAPQVYTIPPPKEQMAKDKVSLTCMITDFFPEDITVEWQWNGQPAENYKNTQPIMDTDGSYFVYSKLNVQKSNWEAGNTFTCSVLHEGLHNHHTEKSLSHSPGK light: NIVMTQSPKSMSMSVGERVTLSCKASENVVSYVSWYQQKPAQSPKLLIYGASNRNTGVPDRFTGSGSATDFTLTISSVRAEDLADYHCGQSYNYPYTFGGGTRLEIKRADAAPTVSIFPPSSEQLTSGGASVVCFLNNFYPKDINVKWKIDGSERQNGVLNSWTDQDSKDSTYSMSSTLTLTKDEYERHNSYTCEATHKTSTSPIVKSFNRNEC
2 |  | no binding | binds |  | 0.0056 nM | 1.2e-05 s⁻¹ | 2e+06 M⁻¹ s⁻¹ | HE2B8-4 (LRMR2B8HC + IgG1 constant region G1m(3) allotype allele 1, plus LRMR2B8LC + Kappa constant region Km(3) allotype allele 1) (antibody, V domains shown, Human Engineered 2B8 variant, human IgG1 kappa, made in HEK293E cells) VH: QVQLVQPGAEVKKPGTSVKLSCKASGYTFTTYWMHWVRQAPGQGLEWIGEINPTNGHTNYNQKFQGRATLTVDKSTSTAYMELSSLRSEDTAVYYCARNYVGSIFDYWGQGTLLTVSS VL: DIVMTQSPDSLAMSLGERVTLNCKASENVVSYVSWYQQKPGQSPKLLIYGASNRESGVPDRFSGSGSATDFTLTISSVQAEDVADYHCGQSYNYPYTFGQGTKLEIKR
